This is an account of results in article PMC11098746 (2024).

The assay has as its target Circumsporozoite protein (CSP) (Plasmodium falciparum (isolate 3D7), UniProt Q7K740). In words: AVEXIS screen signal:noise (double-corrected).

Chain of Circumsporozoite protein (CSP) (Q7K740 19-374): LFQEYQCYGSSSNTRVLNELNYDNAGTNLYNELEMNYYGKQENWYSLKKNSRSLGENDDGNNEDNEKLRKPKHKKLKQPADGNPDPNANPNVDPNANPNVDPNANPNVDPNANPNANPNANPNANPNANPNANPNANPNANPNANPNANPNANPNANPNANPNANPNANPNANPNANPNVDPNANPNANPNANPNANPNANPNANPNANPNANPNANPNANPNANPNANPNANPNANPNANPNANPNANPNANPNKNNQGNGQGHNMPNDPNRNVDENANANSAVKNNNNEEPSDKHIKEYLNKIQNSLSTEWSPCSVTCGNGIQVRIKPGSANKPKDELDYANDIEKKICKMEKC

B1: ADP307 (protein)
chain: MALSVPLLLGLLGLAVAEPAVYFKEQFLDGDGWTSRWIESKHKSDFGKFVLSSGKFYGDEEKDKGLQTSQDARFYALSASFEPFSNKGQTLVVQFTVKHEQNIDCGGGYVKLFPNSLDQTDMHGDSEYNIMFGPDICGPGTKKVHVIFNYKGKNVLINKDIRCKDDEFTHLYTLIVRPDNTYEVKIDNSQVESGSLEDDWDFLPPKKIKDPDASKPEDWDERAKIDDPTDSKPEDWDKPEHIPDPDAKKPEDWDEEMDGEWEPPVIQNPEYKGEWKPRQIDNPDYKGTWIHPEIDNPEYSPDPSIYAYDNFGVLGLDLWQVKSGTIFDNFLITNDEAYAEEFGNETWGVTKAAEKQMKDKQDEEQRLKEEEEDKKRKEEEEAEDKEDDEDKDEDEEDEEDKEEDEEEDVPGQAKDEL
modifications: bait human Fc-tagged dimer
The molecule B1 yielded a binding score of 1.67.

B2: ADP103 (protein)
chain: MAAALFVLLGFALLGTHGASGAAGFVQAPLSQQRWVGGSVELHCEAVGSPVPEIQWWFEGQGPNDTCSQLWDGARLDRVHIHATYHQHAASTISIDTLVEEDTGTYECRASNDPDRNHLTRAPRVKWVRAQAVVLVLEPGTVFTTVEDLGSKILLTCSLNDSATEVTGHRWLKGGVVLKEDALPGQKTEFKVDSDDQWGEYSCVFLPEPMGTANIQLHGPPRVKAVKSSEHINEGETAMLVCKSESVPPVTDWAWYKITDSEDKALMNGSESRFFVSSSQGRSELHIENLNMEADPGQYRCNGTSSKGSDQAIITLRVRSHL
modifications: bait human Fc-tagged dimer
On to B2, for which the binding score was found to be 0.981.

B3: ADP107 (protein)
chain: MGTKAQVERKLLCLFILAILLCSLALGSVTVHSSEPEVRIPENNPVKLSCAYSGFSSPRVEWKFDQGDTTRLVCYNNKITASYEDRVTFLPTGITFKSVTREDTGTYTCMVSEEGGNSYGEVKVKLIVLVPPSKPTVNIPSSATIGNRAVLTCSEQDGSPPSEYTWFKDGIVMPTNPKSTRAFSNSSYVLNPTTGELVFDPLSASDTGEYSCEARNGYGTPMTSNAVRMEAVERNVGV
modifications: bait human Fc-tagged dimer
Molecule B3 yielded a binding score of 0.991.

B4: ADP361 (protein)
chain: MAPPQVLAFGLLLAAATATFAAAQEECVCENYKLAVNCFVNNNRQCQCTSVGAQNTVICSKLAAKCLVMKAEMNGSKLGRRAKPEGALQNNDGLYDPDCDESGLFKAKQCNGTSMCWCVNTAGVRRTDKDTEITCSERVRTYWIIIELKHKAREKPYDSKSLRTALQKEITTRYQLDPKFITSILYENNVITIDLVQNSSQKTQNDVDIADVAYYFEKDVKGESLFHSKKMDLTVNGEQLDLDPGQTLIYYVDEKAPEFSMQGLKAG
modifications: bait human Fc-tagged dimer
In turn, B4 had a binding score of 6.45.

B5: ADP373 (protein)
chain: MAKASCLPLGFIVFLPAVLLLVAPPLPAADAAHEFTVYRMQQYDLQGQPYGTRNAVLNTEARTMAAEVLSRRCVLMRLLDFSYEQYQKALRQSAGAVVIILPRAMAAVPQDVVRQFMEIEPEMLAMETAVPVYFAVEDEALLSIYKQTQAASASQGSASAAEVLLRTATANGFQMVTSGVQSKAVSDWLIASVEGRLTGLGGEDLPTIVIVAHYDAFGVAPWLSLGADSNGSGVSVLLELARLFSRLYTYKRTHAAYNLLFFASGGGKFNYQGTKRWLEDNLDHTDSSLLQDNVAFVLCLDTVGRGSSLHLHVSKPPREGTLQHAFLRELETVAAHQFPEVRFSMVHKRINLAEDVLAWEHERFAIRRLPAFTLSHLESHRDGQRSSIMDVRSRVDSKTLTRNTRIIAEALTRVIYNLTEKGTPPDMPVFTEQMQIQQEQLDSVMDWLTNQPRAAQLVDKDSTFLSTLEHHLSRYLKDVKQHHVKADKRDPEFVFYDQLKQVMNAYRVKP
modifications: bait human Fc-tagged dimer
B5 came in with a binding score of 1.26.

B6: ADP144 (protein)
chain: MELRARGWWLLCAAAALVACARGDPASKSRSCGEVRQIYGAKGFSLSDVPQAEISGEHLRICPQGYTCCTSEMEENLANRSHAELETALRDSSRVLQAMLATQLRSFDDHFQHLLNDSERTLQATFPGAFGELYTQNARAFRDLYSELRLYYRGANLHLEETLAEFWARLLERLFKQLHPQLLLPDDYLDCLGKQAEALRPFGEAPRELRLRATRAFVAARSFVQGLGVASDVVRKVAQVPLGPECSRAVMKLVYCAHCLGVPGARPCPDYCRNVLKGCLANQADLDAEWRNLLDSMVLITDKFWGTSGVESVIGSVHTWLAEAINALQDNRDTLTAKVIQGCGNPKVNPQGPGPEEKRRRGKLAPRERPPSGTLEKLVSEAKAQLRDVQDFWISLPGTLCSEKMALSTASDDRCWNGMARGRYLPEVMGDGLANQINNPEVEVDITKPDMTIRQQIMQLKIMTNRLRSAYNGNDVDFQDASDDGSGSGSGDGCLDDLCSRKVSRKSSSSRTPLTHALPGLSEQEGQKTSAAS
modifications: bait human Fc-tagged dimer
In turn, B6 returned a binding score of 0.883.

B7: ADP280 (protein)
chain: TPPNAIVFTYGHLKVADMVKTGVIMNIIGVFCVFLAVNTWGRAIFDLDHFPDWANVTHIET
modifications: also: human Fc-tagged dimer
As for B7, the binding score is 0.749.

B8: ADP339 (protein)
chain: MASPFLVLAIGTCLTNSLVPEKEKDPKYWRDQAQETLKYALELQKLNTNVAKNVIMFLGDGMGVSTVTAARILKGQLHHNPGEETRLEMDKFPFVALSKTYNTNAQVPDSAGTATAYLCGVKANEGTVGVSAATERSRCNTTQGNEVTSILRWAKDAGKSVGIVTTTRVNHATPSAAYAHSADRDWYSDNEMPPEALSQGCKDIAYQLMHNIRDIDVIMGGGRKYMYPKNKTDVEYESDEKARGTRLDGLDLVDTWKSFKPRYKHSHFIWNRTELLTLDPHNVDYLLGLFEPGDMQYELNRNNVTDPSLSEMVVVAIQILRKNPKGFFLLVEGGRIDHGHHEGKAKQALHEAVEMDRAIGQAGSLTSSEDTLTVVTADHSHVFTFGGYTPRGNSIFGLAPMLSDTDKKPFTAILYGNGPGYKVVGGERENVSMVDYAHNNYQAQSAVPLRHETHGGEDVAVFSKGPMAHLLHGVHEQNYVPHVMAYAACIGANLGHCAPASS
modifications: bait human Fc-tagged dimer
In the case of B8, the binding score turned out to be 1.02.

B9: ADP380 (protein)
chain: VLEEVQQVRRSHQDFSRQREELGQGLQGVEQKVQSLQATFGTFESILRSSQHKQDLTEKAVKQGESEVSRISEVLQKLQNEILKDLSDGIHVVKDARERDFTSLENTVEERLTELTKSINDNIAIFTEVQKRSQKEINDMKAKVASLEESEGNKQDLKALKEAVKEIQTSAKSREWDMEALRSTLQTMESDIYTEVRELVSLKQEQQAFKEAADTERLALQALTEKLLRSEESVSRLPEEIRRLEEELRQLKSDSHGPKEDGGFRHSEAFEALQQKSQGLDSRLQHVEDGVLSMQVASARQTESLESLLSKSQEHEQRLAALQGRLEGLGSSEADQDGLASTVRSLGETQLVLYGDVEELKRSVGELPSTVESLQKVQEQVHTLLSQDQAQAARLPPQDFLDRLSSLDNLKASVSQVEADLKMLRTAVDSLVAYSVKIETNENNLESAKGLLDDLRNDLDRLFVKVEKIHEKV
modifications: bait human Fc-tagged dimer
The molecule B9 gave a binding score of 0.68.

B10: ADP141 (protein)
chain: MGRLASRPLLLALLSLALCRGRVVRVPTATLVRVVGTELVIPCNVSDYDGPSEQNFDWSFSSLGSSFVELASTWEVGFPAQLYQERLQRGEILLRRTANDAVELHIKNVQPSDQGHYKCSTPSTDATVQGNYEDTVQVKVLADSLHVGPSARPPPSLSLREGEPFELRCTAASASPLHTHLALLWEVHRGPARRSVLALTHEGRFHPGLGYEQRYHSGDVRLDTVGSDAYRLSVSRALSADQGSYRCIVSEWIAEQGNWQEIQEKAVEVATVVIQPSVLRAAVPKNVSVAEGKELDLTCNITTDRADDVRPEVTWSFSRMPDSTLPGSRVLARLDRDSLVHSSPHVALSHVDARSYHLLVRDVSKENSGYYYCHVSLWAPGHNRSWHKVAEAVSSPAGVGVTWLEPDYQVYLNASKVPGFADDPTELACRVVDTKSGEANVRFTVSWYYRMNRRSDNVVTSELLAVMDGDWTLKYGERSKQRAQDGDFIFSKEHTDTFNFRIQRTTEEDRGNYYCVVSAWTKQRNNSWVKSKDVFSKPVNIFWALEDSVLVVKARQPKPFFAAGNTFEMTCKVSSKNIKSPRYSVLIMAEKPVGDLSSPNETKYIISLDQDSVVKLENWTDASRVDGVVLEKVQEDEFRYRMYQTQVSDAGLYRCMVTAWSPVRGSLWREAATSLSNPIEIDFQTSGPIFNASVHSDTPSVIRGDLIKLFCIITVEGAALDPDDMAFDVSWFAVHSFGLDKAPVLLSSLDRKGIVTTSRRDWKSDLSLERVSVLEFLLQVHGSEDQDFGNYYCSVTPWVKSPTGSWQKEAEIHSKPVFITVKMDVLNAFKYP
modifications: bait human Fc-tagged dimer
The molecule B10 yielded a binding score of 2.49.

B11: ADP318 (protein)
chain: MAGRLWPLLLSILTATAVPGPSLRRPSRELDATPRMTIPYEELSGTRHFKGQAQNYSTLLLEEASARLLVGARGALFSLSANDIGDGAHKEIHWEASPEMQSKCHQKGKNNQTECFNHVRFLQRLNSTHLYACGTHAFQPLCAAIDAEAFTLPTSFEEGKEKCPYDPARGFTGLIIDGGLYTATRYEFRSIPDIRRSRHPHSLRTEETPMHWLNDAEFVFSVLVRESKASAVGDDDKVYYFFTERATEEGSGSFTQSRSSHRVARVARVCKGDLGGKKILQKKWTSFLKARLICHIPLYETLRGVCSLDAETSSRTHFYAAFTLSTQWKTLEASAICRYDLAEIQAVFAGPYMEYQDGSRRWGRYEGGVPEPRPGSCITDSLRSQGYNSSQDLPSLVLDFVKLHPLMARPVVPTRGRPLLLKRNIRYTHLTGTPVTTPAGPTYDLLFLGTADGWIHKAVVLGSGMHIIEETQVFRESQSVENLVISLLQHSLYVGAPSGVIQLPLSSCSRYRSCYDCILARDPYCGWDPGTHACAAATTIANRTALIQDIERGNRGCESSRDTGPPPPLKTRSVLRGDDVLLPCDQPSNLARALWLLNGSMGLSDGQGGYRVGVDGLLVTDAQPEHSGNYGCYAEENGLRTLLASYSLTVRPATPAPAPKAPATPGAQLAPDVRL
modifications: bait human Fc-tagged dimer
The molecule B11 showed a binding score of 3.59.

B12: ADP098 (protein)
chain: RELPAQKWWHTGALYRIGDLQAFQGHGAGNLAGLKGRLDYLSSLKVKGLVLGPIHKNQKDDVAQTDLLQIDPNFGSKEDFDSLLQSAKKKSIRVILDLTPNYRGENSWFSTQVDTVATKVKDALEFWLQAGVDGFQVRDIENLKDASSFLAEWQNITKGFSEDRLLIAGTNSSDLQQILSLLESNKDLLLTSSYLSDSGSTGEHTKSLVTQYLNATGNRWCSWSLSQARLLTSFLPAQLLRLYQLMLFTLPGTPVFSYGDEIGLDAAALPGQPMEAPVMLWDESSFPDIPGAVSANMTVKGQSEDPGSLLSLFRRLSDQRSKERSLLHGDFHAFSAGPGLFSYIRHWDQNERFLVVLNFGDVGLSAGLQASDLPASASLPAKADLLLSTQPGREEGSPLELERLKLEPHEGLLLRFPYAA
modifications: bait human Fc-tagged dimer
Molecule B12 registered a binding score of 1.12.
